Assay results: doi:10.1101/2025.09.11.675549, “CCDC103-mediated assembly of the R2C complex links RUVBL1-RUVBL2 to Primary Ciliary Dyskinesia” (bioRxiv, 2025)

Key:
[1] = target: T1, RUVBL1-RUVBL2-strep complex (6XHIS-RUVBL1-RUVBL2-strep) (human, UniProt Q9Y265 1-456; Q9Y230 1-463); test: pull-down; 10 uM GST-CCDC103 RBD and 10 uM RUVBL1-RUVBL2 on GST beads; 50mM HEPES pH 7.5, 140mM NaCl, 0.001% Tween 20; 45 min at 4 C; three washes; SDS-PAGE; details: both partners purified
T1 construct: RUVBL1 (RuvB like 1), human, UniProt Q9Y265; RUVBL2 (RuvB like 2), human, UniProt Q9Y230; also called RUVBL1-RUVBL2 complex; hetero-hexameric ring; source: E. coli Rosetta (DE3) pLysS (pRSETA and pCDF Duet 1), purified by a previously defined protocol; not shown: Strep, C-terminal, kept; copies: 3 + 3
T1 sequence (Q9Y265 whole entry, chain 1 of 2): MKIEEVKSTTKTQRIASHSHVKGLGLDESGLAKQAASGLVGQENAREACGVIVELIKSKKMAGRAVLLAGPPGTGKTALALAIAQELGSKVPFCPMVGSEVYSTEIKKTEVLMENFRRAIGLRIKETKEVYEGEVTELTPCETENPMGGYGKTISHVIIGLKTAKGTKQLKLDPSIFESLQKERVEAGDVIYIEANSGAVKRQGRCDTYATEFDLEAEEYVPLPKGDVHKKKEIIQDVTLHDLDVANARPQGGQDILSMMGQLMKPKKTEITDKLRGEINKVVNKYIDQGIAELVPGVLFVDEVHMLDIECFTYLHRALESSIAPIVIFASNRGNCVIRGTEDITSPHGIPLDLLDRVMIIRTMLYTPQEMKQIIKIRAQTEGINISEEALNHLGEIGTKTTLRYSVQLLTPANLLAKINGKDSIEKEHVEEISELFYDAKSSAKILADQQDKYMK
T1 sequence (Q9Y230 whole entry, chain 2 of 2): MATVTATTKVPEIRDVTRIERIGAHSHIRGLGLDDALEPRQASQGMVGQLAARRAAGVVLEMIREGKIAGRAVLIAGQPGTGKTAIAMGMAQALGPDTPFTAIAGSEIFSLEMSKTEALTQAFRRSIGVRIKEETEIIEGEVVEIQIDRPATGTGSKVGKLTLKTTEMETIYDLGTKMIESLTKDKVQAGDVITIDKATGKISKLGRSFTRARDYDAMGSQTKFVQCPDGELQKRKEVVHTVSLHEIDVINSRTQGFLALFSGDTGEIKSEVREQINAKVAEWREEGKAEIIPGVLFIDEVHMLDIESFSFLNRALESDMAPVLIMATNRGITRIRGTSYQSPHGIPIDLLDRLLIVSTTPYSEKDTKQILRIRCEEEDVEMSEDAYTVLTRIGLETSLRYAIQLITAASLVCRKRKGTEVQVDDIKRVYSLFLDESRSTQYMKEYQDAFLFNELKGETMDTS

[2] = target: T1, RUVBL1-RUVBL2-strep complex …; test: pull-down; RUVBL1-RUVBL2-strep held on Streptavidin Mag Sepharose beads, full-length CCDC103 as prey; 50mM HEPES pH 7.5, 140mM NaCl, 0.001% Tween 20; eluted with 2.5mM desthiobiotin; SDS-PAGE; details: both partners purified

binding result [1]	binding result [2]	Binder
binds		GST-tagged RBD domain of CCDC103 (domain or fragment, human, UniProt Q8IW40 100-242, looked up, CCDC103, human, UniProt Q8IW40, RBD without the first 99 residues (lacks N-terminal 1-99); also called GST-CCDC103 RBD; source: E. coli Rosetta (DE3) pLysS (pGEX6-P1), purified (glutathione Sepharose 4B); not shown: GST, N-terminal, kept) ETSADFYRDWRRHLPSGPERYQALLQLGGPRLGCLFQTDVGFGLLGELLVALADHVGPADRAAVLGILCSLASTGRFTLNLSLLSRAERESCKGLFQKLQAMGNPRSVKEGLSWEEQGLEEQSGGLQEEERLLQELLELYQVD
	binds	full-length CCDC103 (natural protein, human, UniProt Q8IW40 1-242, looked up, CCDC103 (DNAAF19), human, UniProt Q8IW40, full length; or Sf9, Flag-tagged) stood in the strep pull-down, so the tag is left open; also called CCDC103FL; DNAAF19) MERNDIINFKALEKELQAALTADEKYKRENAAKLRAVEQRVASYEEFRGIVLASHLKPLERKDKMGGKRTVPWNCHTIQGRTFQDVATEISPEKAPLQPETSADFYRDWRRHLPSGPERYQALLQLGGPRLGCLFQTDVGFGLLGELLVALADHVGPADRAAVLGILCSLASTGRFTLNLSLLSRAERESCKGLFQKLQAMGNPRSVKEGLSWEEQGLEEQSGGLQEEERLLQELLELYQVD
